Assay: soluble fraction after stress (log2 fold change); higher = more stays soluble; pooled small domains, quantitative proteomics
Conditions: stress: pH 4
In short: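 Small protein domains from pooled custom libraries were exposed to pH 4, then quantified with high-throughput quantitative proteomics. The fold change in how much of each domain remains soluble is read as aggregation propensity. It is given as log2, with higher values meaning more stayed soluble.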

Sequence | soluble fraction (log2)
HMEPTAEQLKAIRQFASVNGRSWKSELRYLWETGAYHRAALGGADPGYLQQVRNQFGPGWLRAFKISK | -0.113
HMEPTPREIVVQQLGYRGLEVLGNAEYQFPKETQIIILKLAELISSGSVTETLEGGKLLALFRGVGINVR | -1.36
HMEPVQPVMYSEFIESVERGEVVEATIQGDKIIATDRSGNRYTVVGSAKDPQLVGQLLERNVAFKFVEE | -0.971
HMEQAMIVILKENPDRRQLEFLTGWLQKQQIGIHISEGAHQTVLGLVGDATRLDIDMLKQMEIVEDVKRVQ | -0.953
HMEQGDTQQEIREKILNLLADGERHMITELKNIRTDQPIDDDKIVGKTLKTLLDEEEVYMDGSYIQLNG | -0.997
HMEQIGSIIKDIRKKNNLTQNEFASILGVTFQAVSKWENDKSIPDITILKDISNKFNVDLNYLISG | -0.48
HMEQISVPIFTNDELVTFARSYSGELGYKIDDMAVLALYNRISNIQRLDQATTLTEVKDIVDEAVAKSE | -0.63
HMEQLESAVASRTLIGQAQGVIMERYGLSAPNAFSVLSRISQDSNTKLAEVAQQIVATRRIPG | 0.0508
HMEQLNKNIKFDNFLESLNFINKVSEVAEEENHHPDLKFGWGYADITIFTHAIKGLSEGDFVLAAKIDVI | -0.295
HMEQMSLISKKKGERIDKFLGENLGDLSRSYIQKLLKDGLILVNGKKVKANYKLNEGDQIDVEVPDP | 0.407
HMEQMSPYPNPSKGKIQFHNQEPMDIKVFNSLGQIVFEQRILSRAILDLSRLSPGQYIVQAGEQKNIWIK | -0.293
HMEQPPVPSVSITAALGSAVARRLAPHGFQKMPDLVDAYRAGKLAQISGIGGTTLDLIREWLTANARQQ | -0.189
HMEQQEFIVPHDSEGQRLDLFLVSVLGTHSRSQIRKLIVNGHVKLENRAPRPNLPVRAGESVVVSMPEPT | -0.315
HMEQQSIYLENRERMTINQVIDVDAFDEETLWANLKEGAVEISGSGLHIEKLDLAEGVLIVSGIIRAFAYV | -0.423
HMEQQVDYTQFIQDVRQGQIREVDVDRNGVINGIKRSGENFVTVIPGGYDRDLINDLVKQGVNATGEL | 0.14
HMEQVKFFDAKVITTPPNRLKTRYTPAGNLRPEADWLQSGAIVPVYETSGAGWYRIGYQTWASAEWMQRLD | 0.166
HMEQVSDPALLERYAKEVVAASPKAVADYQAGNAKAFQALVGQMMKRTKGKGDPALIREILQKL | 0.143
HMEQVTMSNFLDKWGTSTKSPNAWYTSLSPMQKAEAKLLKEESGLTWNKWYEKNIYVGDGTN | -0.264
HMERAYGVRVSLRLDDPFRTLLGADWSRTHWFASAEERDAALLEMSRKHEFSRPGDQPALVYEKVQN | -0.471
HMERDVNQLTPRERDILKLIAQGLPNKMIARRLDITESTVKVHVKHMLKKMKLKSRVEAAVWVHQERI | 0.0307
HMEREQNILQGREVVERELRRLGLAEAYTVSDIAKALKFDDEEQFLAKVGFGDIQSRQISGAIALMEKN | -0.553
HMERFLENAIPVLGETGLDIKSATEDFENALIRQALHLSGGNKNRAATLLGLKRTTFVEMLKRKSL | -0.398
HMERFMEFVITDTQQGQRLDVVLTETTEHLGSRSHMQRSIRAGLVSIDGITTTRASTKVSSGQIIRVEPT | -0.629
HMERGEFQKLGRATLEQTLARAGKTLAEVSLKAMLETFAFAAEEDLYEALGRGRVSAAKVGETLFPALKGR | -0.942
HMERKMKNNISDQTTYDTDKILNFNGKGYLNGLVIPNNYQIKEEGYYVFRQVALDGREQILYFTIQDLS | -1.56

Sequence | soluble fraction (log2)
HMERLSVSMGDMVVFVRDAVEAFRGLVKEKGITLTFESKVEHFYMNYDHDKVYKVVNNLLSNAVKFT | -1.31
HMERLTVVPELLKRSLSEAQPLVTSARLRLEVSGGAPEDTSRAIVVGQKPPPGTRVQVGTTVIVTVQIQRP | -0.403
HMERPYNGKQMEYHEGGVEKKETLFVEGGLSRVIQWDESGQKRSEVNISPTGVRREQYWDSSGKAIAKPS | 0.0672
HMERQAEAWTNRASALISLGRDEEALEAADRAIELDPRLSKAWIDRSTALSNLGRNDEANEAIQMAMFL | -0.962
HMERQILFTKEDLIEFGLSGGTDSRKRRDVLGHILGIGYSNSKQFLNRLNNFGVTREEFLSAIERIG | -0.454
HMERTVEVVDINDVFSQFLRLYSRERAAGLLSVFKRVEHGLSWQGNPVLLERILSNVFENAIKYAA | -0.424
HMERVIYLLNGREVPAAEIRAAEPEALTVDRFYSSENLPAEYRDRNPELVVAFTAEEPLRHY | -0.559
HMERVNILEKATKDIPNVEVKAFEGLSVNFARENHAQVIVRGLRAVTDFEYELQMAQTNRVLAPDVDTVF | 0.317
HMERYSVQVGSFRNMRYAERLKQELQGEDFPAYIEKSGEFNRVRVGKGLTLEEATQLEQVLRKSGYQTVIV | 0.0226
HMESIGANIRRLRKERNMSQDELARKAFTNRSNINRYESGKMVPSADTTEKIEEALGVPAGTLAQ | -0.638
HMESKDIRYVQLQTVSPEEVLQALALIMPRSDVYVEPTGKLVVLHGSKETLDRAEELILALDNAV | -0.641
HMESKITTAEAAAILNASPQFVRVAMQRGILNIGIAMQMPNSNKWTYNISPKLLGEYSGKNIEYELERLR | -0.692
HMESRTQVYDFYKDLFREKRRPLRAEEMLSALKSQRGIVGVNQYQIIEQHGIVRLSGSGRSALYWDTDLGS | -0.746
HMESSREVSFSEFMKQIDSGRVSSVKLDGETIYVRNSDGTSYKVIQPLGTDLIGVLRKSDIDVQAIKQ | 0.165
HMESYNIVEQVLTKKILSKGNTLAKLSNEFDGLVMLVIRGDEFIIPNGETLLFEKDILVINNGP | -1.2
HMESYTGLAVTEDDDGWSNVRSGNSTSYSILFKIYAGEKFNILSNDGKWSYIDFNGRKGYIHNSIIRKY | 0.31
HMETAADLLAAAKENPARFGILASEGRFGLGYMNDDLLDPDNLVAISREEADDLRGLGVYFHNLD | -0.308
HMETALYVEDLDRAVRFYESVMGLNTMSRGVRLVALDAGEGTVLLLFLRGATTSGASFEGGWIPPH | -0.257
HMETDNEKVRTAFQNGLAAYREQDWDRAEAAFGAVLAEMPEDRPSLVYLERIAHLRKKAPPGAWDGVWI | -1.07
HMETENLSPREREILEYIVKGYSYKMIAADLNIATETVRSHIKKIYKKLQVNSATEAVYKYSN | -0.424
HMETEQVEMIRVVGMHVDEAKKALLDLGLSPEIKYEESSSYDAGTVLRASVQDGLMIDKGTNIVLTVAEA | -0.549
HMETFEKIKELAKKRGKALGQVEEDLGYGRNTLYKIKNSTPNAERIAEIANYFNVSTDYLLGRTDNPTIAK | 0.104
HMETFNMTQKEITRLRVINQAIDKVITIREAAELLGLSERQVIRLKGGVEKFGPAFIIHKNRGRKP | -0.265
HMETGLSNYEFKRIREQAEALLSDGQVRRINDLVDSIKNENAEKVIRVIRFLIDTEELILEDDRVSAKKS | -1.42
HMETIVGIDPDSKKKIVLKKGIKGRPDYLSFNKKNYSLPSELKEKNVSLEQALEIINDKKSNKKKIK | 0.201

Sequence | soluble fraction (log2)
HMETLSKVGSTGSEVRQIQTKLKNWGYFSDKVDGIYGEKTRAAVVWFQKKNGLTADGIAGPATLKAMGIYT | ≥ 0.43
HMETLSVRERMTSIISLLNKHEDIEFSKLFNISEGRLGVVVTFLALLELVKESLVDVIQNQPMSKLYIGKK | -0.376
HMETLTPQEHKVLLLAVKGRTNGEIASELGIAQNTVKNHLAHIYAKMGVGNRTELASEYLRRIH | 0.0578
HMETTEELISKTVPISYADMAALTGILDGVKSARGDIQVDDRTSTIIIHDIQSSIDEMMRLIKILD | -1.13
HMETTMVEIKAEFTIRNRLDIPAMMEKAGYKDRGEFLSVLEKITGNYNWDRDVKKGDTFMVPSKLA | -0.335
HMETVPMIDLRGMTQEQAEKAIVGLGLTVGTVDHSSSDMPAGQVWFQSVEPKDEVAPGTKVNIIISTGS | -0.128
HMETYNLDVGDSAVLQYQNVSRISVGNPDVLDAIPLDKSQILLTGKATGGAALIVWDSKGMHMEKVMVHPA | -0.152
HMETYTVSSKDGYANVRNEATVNSDLIAELKNGTLVTKFKEKGEWYYIEFEREDGTPFDYGYIHKSQLK | -0.224
HMEVALEVPELRGLSMKQATNTLMASGFEVQKVGSGTIYAQFPLPGERLRTGYAVTIRGKTRDLG | 0.047
HMEVAPEKVLEALNELPEIYKIVLNLYAVENMSHKEIAKKLGISLGSSKSRLSRGRVMLNTLLNR | -0.866
HMEVDWLEVEKVIVSSSYSWMENSPKVKLLQEYIGVTADGIYGLGTWGAHRTHAVDLGFINLSYPIP | -1.69
HMEVEADEFQQLLRSGEYVQALDRARANQDIGLRQQQIVQIARHQAASGIQAGAMGSLASLYQF | -0.461
HMEVHLMPGTVLLREYESNEYRVTVTPEGFYDLNGKVFKSLSAVARHITGVNWSGPRFFGVEP | -0.604
HMEVLSYYGSRGQEVVNIQTKLKQWGYYKGNIDGIFGNLTYQAVREFQRKNGLKVDGIVGPETLAALGLPT | -0.479
HMEVPQVETEKVEAKLKEAEVLLVKVTDSSLKANATETLAGLRNNLTLQTMDNNGIMAEAEKLLALLRES | -0.315
HMEVPTGNHIRRWRKSLDITQVKLSSLSGVAQSIIAKIENETVDPRVSTLRKLVEALSRFENP | -0.358
HMEVQVGKQVRAFRETLGMTVQQFAERTGFSAALLAQIENRMVSPSLGTLVKIANTFGTTVSSFIG | -0.38
HMEVSTDADFEAVGIRAELIPILQKLGFTTVAQLKEVKATKLFNDIPGMRKKLKLDAVQNPTLQEIEGWLK | 0.0606
HMEVTLEEKLSYVEEYAKVHSHFSFRDLLKKQASKTQIVVTFLAILELMKTGKIQITQEHIFDDIVITAK | -0.649
HMEVTYQETLRVLYNAIDKLPPQTKEIILIGLDGKDNNEIAATLNISVNTVKTLKKNAYKTLRELLVD | -0.601
HMEWNPEKQHLLENYITNYSRQLNDTGLFYKNLDWNYIFNLVGVDDQEFLMLKIDEIYDESINVY | -1.63
HMEWNREQLEQIVLQHIRKHGFITRATYTELTGRLKNSALADLKSFAAEGIIKRVGRGNQMHFIVPL | 0.221
HMEWTDHLAEELRSLAVEGEHLEIIANKLGISPGSARAKLVNLNIYNDYQLAHIERLEADTLQAK | -0.967
HMEYFDDEELDRYKGRTSDSFTDDEAEEFREVMMTMHPEEVKAWNRSLILRDVAMPDQIKDDYIMLAG | -2.41
HMEYKYNPADYPYPLNEDIEKVYSAYREKSIGKLEAAVQNLYYTLKQARRDNILSDVKVNEMQQYFLALRN | 0.0584

Reference: the domain aggregation screens of Martell et al. (2025)
